For 75 variants, screen value results are on record in article PMC12102759 (2025).

B1: TPTE2 peptide 92-107 (Phosphatidylinositol 3,4,5-trisphosphate 3-phosphatase TPTE2), 16-mer library wild type / TLN1 PTB (TLN1 Phosphotyrosine-binding (PTB) domain, residues 309-401) (parent complex)
chain 1: LADLIFTDSKLYIPLE
chain 2: GVSFFLVKEKMKGKNKLVPRLLGITKECVMRVDEKTKEVIQEWNLTNIKRWAASPKSFTLDFGDYQDGYYSVQTTEGEQIAQLIAGYIDIILK
B2: AXIN1 peptide 237-252 (Axin-1), 16-mer library wild type / PP2A B56 (PPP2R5A B56 domain, residues 1-486) (parent complex)
chain 1: YLPTLNEDEEWKADQD
chain 2: not shown

In the first assay the parent is B1. The assay can be described thus: proteomic peptide phage display deep mutational scan (ProP-PD DMS): M13 P8 16-mer library selected against immobilised GST-tagged bait for four days (rounds), NGS of the eluted pools per day and pseudo-replica; bait immobilised on MaxiSorp plates (10 µg), library pre-cleared on GST, 2 h binding at 4 °C, five washes; one round per day, days 1-4; value from days 2 and 3.
For chain 1 E16K, the screen value is 0.000641 average fractional NGS count over selection days 2 and 3 (reads of this peptide / all reads for the bait, averaged over ….
The same measure, in the same setting: the value for chain 1 E16P was 0.00113 average fractional NGS count over selection days 2 and 3 (reads of this peptide / all reads for the bait, averaged over ….
On the same count and under the same terms, the value for chain 1 E16W was 0.00358 average fractional NGS count over selection days 2 and 3 (reads of this peptide / all reads for the bait, averaged over …; that for chain 1 E16T was 0.00391 average fractional NGS count over selection days 2 and 3 (reads of this peptide / all reads for the bait, averaged over …; that for chain 1 D8E was 0.00151 average fractional NGS count over selection days 2 and 3 (reads of this peptide / all reads for the bait, averaged over ….
Same read-out and setting: the value for chain 1 K10T was 0.000653 average fractional NGS count over selection days 2 and 3 (reads of this peptide / all reads for the bait, averaged over …; that for chain 1 K10S was 0.000449 average fractional NGS count over selection days 2 and 3 (reads of this peptide / all reads for the bait, averaged over …; that for chain 1 L15R was 0.0012 average fractional NGS count over selection days 2 and 3 (reads of this peptide / all reads for the bait, averaged over ….
As for chain 1 L15I, the screen value was 0.00147 average fractional NGS count over selection days 2 and 3 (reads of this peptide / all reads for the bait, averaged over ….
As for chain 1 L15A, the screen value is 0.000297 average fractional NGS count over selection days 2 and 3 (reads of this peptide / all reads for the bait, averaged over ….
With chain 1 L15G, the screen value was 0.000168 average fractional NGS count over selection days 2 and 3 (reads of this peptide / all reads for the bait, averaged over ….
Take chain 1 L11I: the screen value was 0.00106 average fractional NGS count over selection days 2 and 3 (reads of this peptide / all reads for the bait, averaged over ….
Still for that read-out and setting: with chain 1 L4E the figure was 0.000131 average fractional NGS count over selection days 2 and 3 (reads of this peptide / all reads for the bait, averaged over ….
On the same count and under the same terms, the value for chain 1 L4M was 0.000697 average fractional NGS count over selection days 2 and 3 (reads of this peptide / all reads for the bait, averaged over …; that for chain 1 L4D was 0.0012 average fractional NGS count over selection days 2 and 3 (reads of this peptide / all reads for the bait, averaged over …; that for chain 1 D3E was 0.000596 average fractional NGS count over selection days 2 and 3 (reads of this peptide / all reads for the bait, averaged over ….
The same measure, in the same setting: with chain 1 T7Q the figure was 0.000521 average fractional NGS count over selection days 2 and 3 (reads of this peptide / all reads for the bait, averaged over …; with chain 1 T7M, 0.000146 average fractional NGS count over selection days 2 and 3 (reads of this peptide / all reads for the bait, averaged over ….
With chain 1 I5N, the screen value is 0.00116 average fractional NGS count over selection days 2 and 3 (reads of this peptide / all reads for the bait, averaged over ….
Same read-out and setting: the value for chain 1 I5T was 0.000326 average fractional NGS count over selection days 2 and 3 (reads of this peptide / all reads for the bait, averaged over …; that for chain 1 I5A was 0.00216 average fractional NGS count over selection days 2 and 3 (reads of this peptide / all reads for the bait, averaged over …; that for chain 1 I5L was 0.000706 average fractional NGS count over selection days 2 and 3 (reads of this peptide / all reads for the bait, averaged over ….
Regarding chain 1 I5S, the screen value was 0.000525 average fractional NGS count over selection days 2 and 3 (reads of this peptide / all reads for the bait, averaged over ….

The variants in another assay derive from B2. The assay is described as above.
Consider chain 1 W11H, for which the screen value is 0.000184 average fractional NGS count over selection days 2 and 3 (reads of this peptide / all reads for the bait, averaged over ….
Consider chain 1 W11S, for which the screen value was 0.000194 average fractional NGS count over selection days 2 and 3 (reads of this peptide / all reads for the bait, averaged over ….
On the same count and under the same terms, with chain 1 W11R the figure was 0.000154 average fractional NGS count over selection days 2 and 3 (reads of this peptide / all reads for the bait, averaged over ….
Same read-out and setting: with chain 1 W11Y the figure was 0.000932 average fractional NGS count over selection days 2 and 3 (reads of this peptide / all reads for the bait, averaged over …; with chain 1 W11L, 0.000123 average fractional NGS count over selection days 2 and 3 (reads of this peptide / all reads for the bait, averaged over …; with chain 1 W11T, 0.000334 average fractional NGS count over selection days 2 and 3 (reads of this peptide / all reads for the bait, averaged over ….
Same read-out and setting: with chain 1 W11F the figure was 0.0013 average fractional NGS count over selection days 2 and 3 (reads of this peptide / all reads for the bait, averaged over …; with chain 1 L2M, 0.000692 average fractional NGS count over selection days 2 and 3 (reads of this peptide / all reads for the bait, averaged over …; with chain 1 Q15W, 0.00273 average fractional NGS count over selection days 2 and 3 (reads of this peptide / all reads for the bait, averaged over ….
Regarding chain 1 Q15N, the screen value was 0.00887 average fractional NGS count over selection days 2 and 3 (reads of this peptide / all reads for the bait, averaged over ….
The same measure, in the same setting: with chain 1 Q15V the figure was 0.000515 average fractional NGS count over selection days 2 and 3 (reads of this peptide / all reads for the bait, averaged over ….
Still for that read-out and setting: the value for chain 1 Q15F was 0.00274 average fractional NGS count over selection days 2 and 3 (reads of this peptide / all reads for the bait, averaged over …; that for chain 1 Q15G was 0.00117 average fractional NGS count over selection days 2 and 3 (reads of this peptide / all reads for the bait, averaged over ….
Same read-out and setting: with chain 1 Q15P the figure was 0.000686 average fractional NGS count over selection days 2 and 3 (reads of this peptide / all reads for the bait, averaged over …; with chain 1 Q15L, 0.00865 average fractional NGS count over selection days 2 and 3 (reads of this peptide / all reads for the bait, averaged over …; with chain 1 Q15R, 0.000634 average fractional NGS count over selection days 2 and 3 (reads of this peptide / all reads for the bait, averaged over ….
Regarding chain 1 Q15A, the screen value was 0.00159 average fractional NGS count over selection days 2 and 3 (reads of this peptide / all reads for the bait, averaged over ….
On the same count and under the same terms, with chain 1 Q15T the figure was 0.0102 average fractional NGS count over selection days 2 and 3 (reads of this peptide / all reads for the bait, averaged over …; with chain 1 Q15S, 0.00176 average fractional NGS count over selection days 2 and 3 (reads of this peptide / all reads for the bait, averaged over ….
On to chain 1 D14T, for which the screen value is 0.00142 average fractional NGS count over selection days 2 and 3 (reads of this peptide / all reads for the bait, averaged over ….
Still for that read-out and setting: the value for chain 1 D14Y was 0.00582 average fractional NGS count over selection days 2 and 3 (reads of this peptide / all reads for the bait, averaged over …; that for chain 1 D14I was 0.000947 average fractional NGS count over selection days 2 and 3 (reads of this peptide / all reads for the bait, averaged over …; that for chain 1 D14F was 0.0121 average fractional NGS count over selection days 2 and 3 (reads of this peptide / all reads for the bait, averaged over ….
Still for that read-out and setting: the value for chain 1 D14G was 0.00106 average fractional NGS count over selection days 2 and 3 (reads of this peptide / all reads for the bait, averaged over …; that for chain 1 D14K was 0.000793 average fractional NGS count over selection days 2 and 3 (reads of this peptide / all reads for the bait, averaged over …; that for chain 1 D14P was 0.00181 average fractional NGS count over selection days 2 and 3 (reads of this peptide / all reads for the bait, averaged over ….
As for chain 1 D14E, the screen value was 0.00475 average fractional NGS count over selection days 2 and 3 (reads of this peptide / all reads for the bait, averaged over ….
Same read-out and setting: the value for chain 1 D14A was 0.00375 average fractional NGS count over selection days 2 and 3 (reads of this peptide / all reads for the bait, averaged over ….
Consider chain 1 D14Q, for which the screen value was 0.00055 average fractional NGS count over selection days 2 and 3 (reads of this peptide / all reads for the bait, averaged over ….
Same read-out and setting: with chain 1 D14N the figure was 0.00275 average fractional NGS count over selection days 2 and 3 (reads of this peptide / all reads for the bait, averaged over …; with chain 1 D14V, 0.00647 average fractional NGS count over selection days 2 and 3 (reads of this peptide / all reads for the bait, averaged over ….
Regarding chain 1 D14S, the screen value was 0.00823 average fractional NGS count over selection days 2 and 3 (reads of this peptide / all reads for the bait, averaged over ….
On the same count and under the same terms, the value for chain 1 D14H was 0.038 average fractional NGS count over selection days 2 and 3 (reads of this peptide / all reads for the bait, averaged over …; that for chain 1 N6Y was 0.000368 average fractional NGS count over selection days 2 and 3 (reads of this peptide / all reads for the bait, averaged over …; that for chain 1 N6T was 0.00301 average fractional NGS count over selection days 2 and 3 (reads of this peptide / all reads for the bait, averaged over ….
Still for that read-out and setting: with chain 1 N6A the figure was 0.00273 average fractional NGS count over selection days 2 and 3 (reads of this peptide / all reads for the bait, averaged over ….
The same measure, in the same setting: the value for chain 1 N6E was 0.00107 average fractional NGS count over selection days 2 and 3 (reads of this peptide / all reads for the bait, averaged over ….
Turning to chain 1 N6M, the screen value is 0.000248 average fractional NGS count over selection days 2 and 3 (reads of this peptide / all reads for the bait, averaged over ….
Regarding chain 1 N6F, the screen value is 0.000398 average fractional NGS count over selection days 2 and 3 (reads of this peptide / all reads for the bait, averaged over ….
Take chain 1 N6Q: the screen value is 0.00501 average fractional NGS count over selection days 2 and 3 (reads of this peptide / all reads for the bait, averaged over ….
Same read-out and setting: with chain 1 N6P the figure was 0.0105 average fractional NGS count over selection days 2 and 3 (reads of this peptide / all reads for the bait, averaged over ….
For the variant chain 1 N6H, the screen value is 0.0272 average fractional NGS count over selection days 2 and 3 (reads of this peptide / all reads for the bait, averaged over ….
Still for that read-out and setting: the value for chain 1 N6S was 0.0193 average fractional NGS count over selection days 2 and 3 (reads of this peptide / all reads for the bait, averaged over …; that for chain 1 N6I was 0.00196 average fractional NGS count over selection days 2 and 3 (reads of this peptide / all reads for the bait, averaged over ….
On the same count and under the same terms, with chain 1 N6L the figure was 0.00123 average fractional NGS count over selection days 2 and 3 (reads of this peptide / all reads for the bait, averaged over …; with chain 1 N6W, 0.000792 average fractional NGS count over selection days 2 and 3 (reads of this peptide / all reads for the bait, averaged over …; with chain 1 D8E, 0.000771 average fractional NGS count over selection days 2 and 3 (reads of this peptide / all reads for the bait, averaged over ….
The same measure, in the same setting: with chain 1 D8T the figure was 0.000632 average fractional NGS count over selection days 2 and 3 (reads of this peptide / all reads for the bait, averaged over ….
In the case of chain 1 D8F, the screen value was 0.000675 average fractional NGS count over selection days 2 and 3 (reads of this peptide / all reads for the bait, averaged over ….
The same measure, in the same setting: with chain 1 D8K the figure was 0.00103 average fractional NGS count over selection days 2 and 3 (reads of this peptide / all reads for the bait, averaged over …; with chain 1 D8G, 0.0025 average fractional NGS count over selection days 2 and 3 (reads of this peptide / all reads for the bait, averaged over ….
For the variant chain 1 D8Q, the screen value was 0.00238 average fractional NGS count over selection days 2 and 3 (reads of this peptide / all reads for the bait, averaged over ….
